Results on one molecule are retold here after publication PMC11630572, “Discovery of Nanosota-9 as anti-Omicron nanobody therapeutic candidate” (PLOS Pathogens, 2024).

Test in all cases: SPR; Biacore S200; spike ectodomain immobilized on CM5 chip by chemical crosslinking; Nanosota-9-His injected at 8, 16, 32, 64, 128 nM; running buffer 10 mM HEPES, 150 mM NaCl, 0.05% Tween 20
What all share (details): both partners purified
(In general: Surface plasmon resonance follows binding to a sensor surface in real time, without labels.)

For experiment [1], the target named is T1, recombinant spike ectodomain of SARS-CoV-2 Omicron subvariant BA.5 (SARS-CoV-2 Omicron BA.5, strain).
T1 construct: also called BA.5 spike ectodomain; BA.5 spike; not shown: His tag, C-terminal, kept

The target of experiment [2] is T2, recombinant spike ectodomain of SARS-CoV-2 Omicron subvariant JN.1 (SARS-CoV-2 Omicron JN.1, strain).
T2 construct: The same GISAID id is printed for XBB.1.5 and JN.1; also called JN.1 spike ectodomain; JN.1 spike; not shown: His tag, C-terminal, kept

Experiment [3] concerns the target T3, recombinant spike ectodomain of SARS-CoV-2 Omicron subvariant XBB.1.5 (SARS-CoV-2 Omicron XBB.1.5, strain).
T3 construct: The same GISAID id is printed for XBB.1.5 and JN.1; also called XBB.1.5 spike ectodomain; XBB.1.5 spike; not shown: His tag, C-terminal, kept

B1: His-tagged Nanosota-9 (Nanosota-9-His) (VHH)
VHH: QVQLQESGGGLVQPGGSLRLSCTASGIALHTHATGWFRQAPGKEREGVSCISSGDGTTYYEDSVEGRFTISRDNAKNTVYLQMNSLKLEDTAVYYCAADPGAVCHSGSYYYTDDDFYYRGQGTQVTVSS
notes: Nanosota-9 nanobody from an alpaca immunized with the BA.5 spike ectodomain; also called monomeric Nanosota-9; not shown: His tag, C-terminal, kept
B1: the Kd in experiment [1] amounted to 0.078 nM; in experiment [2], 29.4 nM; in experiment [3], 0.06 nM.

The term Kd denotes the constant that tells how readily two partners part at equilibrium.
